The text below walks through data of PMC2580030 (PLoS ONE, 2008).

Ends that are not written are not given here.

The target in the assay is recombinant soluble empty (peptide free) HLA-DR1 (human). The assay is described as follows: fluorescence polarisation. Conditions: both partners purified. A general note: Polarisation of emitted light reports the rotation of a fluorescent probe.

B1: FAM-CLIP peptide (residues 87-101) (peptide)
peptide: {FAM}-PVSKMRMATPLLMQA
Consider B1, for which the t1/2 was about 1.33 h.
